Test results taken from article doi:10.1101/2023.04.24.538075 (bioRxiv, 2023).

Target: T1, Cdc24-H (S. cerevisiae, UniProt P11433 1-854)
T1 sequence: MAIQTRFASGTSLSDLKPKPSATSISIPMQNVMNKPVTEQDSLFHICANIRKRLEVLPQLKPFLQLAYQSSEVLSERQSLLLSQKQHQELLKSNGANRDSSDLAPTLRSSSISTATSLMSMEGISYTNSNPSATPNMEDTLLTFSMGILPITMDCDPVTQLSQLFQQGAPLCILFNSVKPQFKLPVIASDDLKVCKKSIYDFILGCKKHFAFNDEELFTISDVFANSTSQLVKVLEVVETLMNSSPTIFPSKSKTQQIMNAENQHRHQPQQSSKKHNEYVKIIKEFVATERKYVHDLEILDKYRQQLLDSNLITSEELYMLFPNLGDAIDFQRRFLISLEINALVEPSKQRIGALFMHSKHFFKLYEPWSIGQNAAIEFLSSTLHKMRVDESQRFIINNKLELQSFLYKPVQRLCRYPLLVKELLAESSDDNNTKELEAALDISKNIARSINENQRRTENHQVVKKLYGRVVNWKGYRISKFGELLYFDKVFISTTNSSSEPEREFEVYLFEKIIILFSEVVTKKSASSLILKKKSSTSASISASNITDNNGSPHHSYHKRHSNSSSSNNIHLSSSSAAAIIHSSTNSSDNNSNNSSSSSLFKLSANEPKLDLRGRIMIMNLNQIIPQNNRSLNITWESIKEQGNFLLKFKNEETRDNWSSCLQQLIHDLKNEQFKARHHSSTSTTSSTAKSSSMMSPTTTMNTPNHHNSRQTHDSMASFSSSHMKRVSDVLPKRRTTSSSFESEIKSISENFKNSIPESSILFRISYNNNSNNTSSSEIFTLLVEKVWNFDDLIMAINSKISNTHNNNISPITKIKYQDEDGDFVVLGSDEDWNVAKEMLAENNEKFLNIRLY
Assay: pull-down

B1: H-Bem1-F (natural protein)
chain: MLKNFKLSKRDSNGSKGRITSADISTPSHDNGSVIKHIKTVPVRYLSSSSTPVKSQRDSSPKNRHNSKDITSPEKVIKAKYSYQAQTSKELSFMEGEFFYVSGDEKDWYKASNPSTGKEGVVPKTYFEVFDRTKPSSVNGSNSSSRKVTNDSLNMGSLYAIVLYDFKAEKADELTTYVGENLFICAHHNCEWFIAKPIGRLGGPGLVPVGFVSIIDIATGYATGNDVIEDIKSVNLPTVQEWKSNIARYKASNISLGSVEQQQQQSITKPQNKSAKLVDGELLVKASVESFGLEDEKYWFLVCCELSNGKTRQLKRYYQDFYDLQVQLLDAFPAEAGKLRDAGGQWSKRIMPYIPGPVPYVTNSITKKRKEDLNIYVADLVNLPDYISRSEMVHSLFVVLNNGFDREFERDENQNNIKTLQENDTATFATASQTSNFASTNQDNTLTGEDLKLNKKLSDLSLSGSKQAPAQSTSGLKTTKIKFYYKDDIFALMLKGDTTYKELRSKIAPRIDTDNFKLQTKLFDGSGEEIKTDSQVSNIIQAKLKISVHDI
- binding result: binds
